Here are results for seven molecules from PMC9507969, “Visualizing maturation factor extraction from the nascent ribosome by the AAA-ATPase Drg1” (Nature Structural & Molecular Biology, 2022).

B1: Drg1 (diazaborine resistance gene 1), wild type, purified (enzyme, S. cerevisiae)
chain: MAPKSSSSGSKKKSSASSNSADAKASKFKLPAEFITRPHPSKDHGKETCTAYIHPNVLSSLEINPGSFCTVGKIGENGILVIARAGDEEVHPVNVITLSTTIRSVGNLILGDRLELKKAQVQPPYATKVTVGSLQGYNILECMEEKVIQKLLDDSGVIMPGMIFQNLKTKAGDESIDVVITDASDDSLPDVSQLDLNMDDMYGGLDNLFYLSPPFIFRKGSTHITFSKETQANRKYNLPEPLSYAAVGGLDKEIESLKSAIEIPLHQPTLFSSFGVSPPRGILLHGPPGTGKTMLLRVVANTSNAHVLTINGPSIVSKYLGETEAALRDIFNEARKYQPSIIFIDEIDSIAPNRANDDSGEVESRVVATLLTLMDGMGAAGKVVVIAATNRPNSVDPALRRPGRFDQEVEIGIPDVDARFDILTKQFSRMSSDRHVLDSEAIKYIASKTHGYVGADLTALCRESVMKTIQRGLGTDANIDKFSLKVTLKDVESAMVDIRPSAMREIFLEMPKVYWSDIGGQEELKTKMKEMIQLPLEASETFARLGISAPKGVLLYGPPGCSKTLTAKALATESGINFLAVKGPEIFNKYVGESERAIREIFRKARSAAPSIIFFDEIDALSPDRDGSSTSAANHVLTSLLNEIDGVEELKGVVIVAATNRPDEIDAALLRPGRLDRHIYVGPPDVNARLEILKKCTKKFNTEESGVDLHELADRTEGYSGAEVVLLCQEAGLAAIMEDLDVAKVELRHFEKAFKGIARGITPEMLSYYEEFALRSGSSS
notes: Drg1 (AFG2), hexameric type-II AAA-ATPase of S. cerevisiae, wild type; Hexamer in the cryo-EM maps; also called DRG1 (AFG2); AAA-ATPase Drg1; source: overexpressed in yeast as GST fusion (CuSO4-induced), purified on GSH-agarose, eluted by Prescission protease cleavage
B2: Nog1 on the pre-60S particle (natural protein, UniProt Q02892 1-647, looked up)
chain: MQLSWKDIPTVAPANDLLDIVLNRTQRKTPTVIRPGFKITRIRAFYMRKVKYTGEGFVEKFEDILKGFPNINDVHPFHRDLMDTLYEKNHYKISLAAISRAKSLVEQVARDYVRLLKFGQSLFQCKQLKRAALGRMATIVKKLRDPLAYLEQVRQHIGRLPSIDPNTRTLLICGYPNVGKSSFLRCITKSDVDVQPYAFTTKSLYVGHFDYKYLRFQAIDTPGILDRPTEEMNNIEMQSIYAIAHLRSCVLYFMDLSEQCGFTIEAQVKLFHSIKPLFANKSVMVVINKTDIIRPEDLDEERAQLLESVKEVPGVEIMTSSCQLEENVMEVRNKACEKLLASRIENKLKSQSRINNVLNKIHVAQPQARDDVKRTPFIPESVKNLKKYDPEDPNRRKLARDIEAENGGAGVFNVNLKDKYLLEDDEWKNDIMPEILDGKNVYDFLDPEIAAKLQALEEEEEKLENEGFYNSDDEEEIYDGFEASEVDDIKEKAAWIRNRQKTMIAEARNRKSLKNKAIMPRSKLTKSFGKMEEHMSTLGHDMSALQDKQNRAARKNRYVERGSDVVFGDQDALTASTENGVKLRQTDRLLDGVADGSMRSKADRMAKMERRERNRHAKQGESDRHNAVSLSKHLFSGKRGVGKTDFR
notes: Nog1 of S. cerevisiae; source: endogenous, on pre-60S particles purified from S. cerevisiae via Bud20-TAP (cryo-EM, blots) or Arx1-TAP (cross-linking)
B6: Rlp24 (ribosomal-like protein 24) on the pre-60S particle (natural protein)
chain: not shown
notes: Ribosomal-like protein 24 (Rlp24) of S. cerevisiae

The target in data set [1] is export-competent pre-60S particle purified via Bud20-TAP (S. cerevisiae (endogenous in the yeast …, UniProt Q08004 1-166; Q07915 1-199; Q03862 1-593; Q02892 1-647; P38861 1-518; P33201 …, Partial protein list of a heterogeneous ~2.1 MDa endogenous particle: members named in the text plus L2-A, L3 and L4-A from the PDB 7Z34 candidate entities. Tif6 is not named in the text and is inferr). Kind of data set: SPR; Biacore X100; pre-60S particles captured through the Protein A moiety of Bud20-TAP on IgG immobilized on a CM3 chip; 25-150 nM Drg1 injected with 1 mM ATPγS; sigmoidal dose-response with variable slope on normalized RU. Particulars: both partners purified. (In general: Surface plasmon resonance follows binding to a sensor surface in real time, without labels.)

Data set [2] concerns the molecule itself. Kind of data set: cryo-EM structure; purified Drg1 (1.75 mg/ml, 12 µM) mixed 1:1 with 200 nM export-competent Bud20-TAP pre-60S particles, 2 mM ATPγS, 10 minutes; particle-bound Drg1 and free Drg1 hexamers picked from the same dataset.
Data set [3] deals with B1. In words: cross-linking; pre-60S particles purified via Arx1-TAP from drg1-18 (TEV eluate) incubated with 150 µg purified Drg1 and 1 mM ATPγS, cross-linked with 1.5 mM DSS or BS3 (isotopically labeled), 30 minutes, 30 °C; LC-MS/MS, xQuest/xProphet. Particulars: both partners purified.
In data set [4] the target is B1. Kind of data set: pull-down; GST-tagged bait on GSH-agarose beads; 80 µg Drg1 in 120 µl binding buffer (20 mM HEPES-KOH, 150 mM potassium acetate, 5 mM magnesium acetate, 0.1% Tween-20, 1 mM DTT, pH 6.8); 1 mM ATP or ATPγS or no nucleotide; 60 minutes, room temperature. Particulars: both partners purified.
Data set [5] addresses B1. Kind of data set: SPR; Biacore X100; GST-Rlp24C amine-coupled on a CM5 chip, GST in the reference cell; 75-10,000 nM Drg1 injected with 1 mM ATPγS; 20 mM HEPES, 10 mM KCl, 2.5 mM MgCl2, 100 mM NaCl, 0.05% Tween-20, 1 mM DTT, pH 7.5; one-site binding hyperbola on normalized RU. Particulars: both partners purified.
In data set [6] the target is B1. Kind of data set: cryo-EM structure; purified Drg1 (1.75 mg/ml, 12 µM) mixed 1:1 with 200 nM export-competent Bud20-TAP pre-60S particles, 2 mM ATPγS, 10 minutes; particle-bound Drg1 and free Drg1 hexamers picked from the same dataset. Particulars: both partners purified.
Data set [7] deals with B2. The data set is described as above. Particulars: both partners purified.
Data set [8] has as its target B6. Kind of data set: co-IP; affinity purification of pre-60S particles via Bud20-TAP from S. cerevisiae crm1^T539C (untreated, LmB and/or diazaborine; ARX1 or Δarx1 background), SDS-PAGE and western blotting. Particulars: partners not purified.

For B1, the EC50 in data set [1] worked out at 46 nM. For the same molecule, the “stoichiometry N” value in data set [2] came to 6.
On to B2, for which the binding result in data set [3] was “binds”.

B3: GST-Rlp24C RKK>E (R191E, K195E, K196E) (domain or fragment, S. cerevisiae, UniProt Q07915 146-199, looked up)
chain: AKEQERAESVSEQEESEEEEEDMEIDSDEEEEEQLEKQKILLKNRERNTEEIAF
notes: Rlp24 of S. cerevisiae, C domain aa 146-199 with three exchanges in the tail; In the ATPase assay the HIS6-tagged form of this variant was used
On to B3, for which the binding result in data set [4] is “binds”.

B4: GST-Rlp24C (Rlp24 C domain, aa 146-199) (domain or fragment, S. cerevisiae, UniProt Q07915 146-199, looked up)
chain: AKEQERAESVSEQEESEEEEEDMEIDSDEEEEEQLEKQKILLKNRRRNTKKIAF
notes: Ribosomal-like protein 24 (Rlp24) of S. cerevisiae, C domain, aa 146-199; In the ATPase assays a HIS6-tagged Rlp24C made in E. coli was used instead of the GST fusion; source: purified
Molecule B4 displayed a Kd in data set [5] of 2700 nM.

B5: Arx1 on the pre-60S particle (natural protein, UniProt Q03862 1-593, looked up)
chain: MALAISHEDTQILLKDKNILQESVLNKYRTAGQIAQTALKYVTSLINDSYHSKTTQRQLTVPELCLLTDSFILTRLEQYYKNKVNERGIAIPTTIDIDQISGGWCPEIDDTQNLLNWNKGKDSTFASSVTGTLRPGDLVKITLGVHIDGYTSEVSHTMVIYPVDETKPILQPTGPLLGGKADAVAAAHIAMETVVALLACALTPEKLPASLGGTSSGITGQLIRTIVDTIARSYNCGVVPGSRVRRIRRFLAGQNEGIVAEREYKGVVWTESHQEADLLSNTDAKDLTVVDRGQSTPFTNVSAIPSDDFVVQSGEVYLIDLKMASLEHCTKKGLVTLETVDSYTGKSHKAGELIARPGAYVRDFAQTHILKLKTSRQLLTKIDKQGVYPFKLSHLSSNFPFVHENEEELQSLKKDLKSFRLGMSEISNNYLCVESPIQIARWVPWDHILKATNPNGNLSYDATSTLTLPGHELPLPKLGVSAIKLKSLMNSTKESISLPVARECNTIVLCDSSVSTTDRPELLRLTGGSKTCQPSWIHSQHELNPQDSIVQGIFQLATLAKDKRFGLLLKETQPMKQKSVETSNGGVEETMKM
notes: Arx1 of S. cerevisiae, maturation factor at the exit of the polypeptide exit tunnel; source: endogenous, on pre-60S particles purified via Bud20-TAP from S. cerevisiae crm1^T539C after LmB treatment
Regarding B5, the binding result in data set [6] was “binds”.
Turning to B6, the binding result in data set [7] was “binds”.

B7: Bud20-TAP (natural protein, S. cerevisiae)
chain: MGRYSVKRYKTKRRTRDLDLIYNDLSTKESVQKLLNQPLDETKPGLGQHYCIHCAKYMETAIALKTHLKGKVHKRRVKELRGVPYTQEVSDAAAGYNLNKFLNRVQEITQSVGPEKESNEALLKEHLDSTLANVKTTEPTLPWAAADAEANTAAVTEAESTASAST
notes: Bud20 of S. cerevisiae; For cryo-EM the Protein A part of the tag was removed by TEV cleavage; source: expressed in S. cerevisiae crm1^T539C; bait of the pre-60S particle purification
B7: the binding result in data set [8] was “binds”.

For orientation: EC50 means the concentration that produces a half-maximal response. One may read the stoichiometry N as a count of units in the complex or per binding partner. In general, Kd refers to the free concentration of one partner at which half of the binding sites on the other are occupied at equilibrium, for simple one-to-one binding. Higher therefore signals weaker binding.
